Patent US20240158521A1 (WISTAR INSTITUTE OF ANATOMY AND BIOLOGY, published 2024)

T1: IL13Rα2 expressed on tumor cells (U87, U373, U251) (UniProt Q14627 27-380, limits assumed)
T1 sequence (looked up): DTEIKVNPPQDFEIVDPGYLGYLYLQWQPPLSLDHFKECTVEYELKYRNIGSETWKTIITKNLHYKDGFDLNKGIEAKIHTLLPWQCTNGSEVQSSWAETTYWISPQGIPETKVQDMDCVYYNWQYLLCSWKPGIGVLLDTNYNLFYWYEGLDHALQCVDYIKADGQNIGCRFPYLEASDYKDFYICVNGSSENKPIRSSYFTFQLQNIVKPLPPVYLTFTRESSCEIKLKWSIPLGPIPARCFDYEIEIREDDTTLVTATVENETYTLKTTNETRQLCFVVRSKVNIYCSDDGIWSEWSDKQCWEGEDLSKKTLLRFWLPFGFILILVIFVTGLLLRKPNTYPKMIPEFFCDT

T2: recombinant CD3 protein (Acrobiosystems) (UniProt P07766 23-126)
T2 chain: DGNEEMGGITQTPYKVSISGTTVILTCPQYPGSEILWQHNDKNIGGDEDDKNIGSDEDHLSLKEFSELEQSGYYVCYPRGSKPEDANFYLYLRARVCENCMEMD

T3: recombinant IL13Rα2 (Sino biological) (UniProt Q14627 27-343)
T3 chain: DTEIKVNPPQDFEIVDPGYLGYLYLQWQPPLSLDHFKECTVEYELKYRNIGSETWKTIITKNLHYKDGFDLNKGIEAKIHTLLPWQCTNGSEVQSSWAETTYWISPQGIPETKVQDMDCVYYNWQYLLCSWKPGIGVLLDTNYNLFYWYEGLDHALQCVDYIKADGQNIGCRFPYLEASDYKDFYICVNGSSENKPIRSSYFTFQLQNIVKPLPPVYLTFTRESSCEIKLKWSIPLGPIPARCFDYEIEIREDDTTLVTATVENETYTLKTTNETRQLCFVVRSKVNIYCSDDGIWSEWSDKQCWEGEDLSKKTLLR

T4: recombinant IL13Rα1 (Sino biological) (UniProt P78552 22-343, limits assumed)
T4 construct: Bought protein; construct not described
T4 sequence (looked up): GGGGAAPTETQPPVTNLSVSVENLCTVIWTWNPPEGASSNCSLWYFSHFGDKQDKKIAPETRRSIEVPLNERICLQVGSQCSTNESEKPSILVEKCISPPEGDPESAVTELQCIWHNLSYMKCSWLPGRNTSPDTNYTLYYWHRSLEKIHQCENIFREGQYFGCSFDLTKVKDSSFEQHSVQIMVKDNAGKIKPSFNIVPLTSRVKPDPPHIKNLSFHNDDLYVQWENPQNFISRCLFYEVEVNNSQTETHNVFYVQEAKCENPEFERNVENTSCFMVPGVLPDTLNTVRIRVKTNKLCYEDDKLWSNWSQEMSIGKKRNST

T5: IL13Rα1 expressed on tumor cells (UniProt P78552 22-427, limits assumed)
T5 construct: whole, on cells
T5 sequence (looked up): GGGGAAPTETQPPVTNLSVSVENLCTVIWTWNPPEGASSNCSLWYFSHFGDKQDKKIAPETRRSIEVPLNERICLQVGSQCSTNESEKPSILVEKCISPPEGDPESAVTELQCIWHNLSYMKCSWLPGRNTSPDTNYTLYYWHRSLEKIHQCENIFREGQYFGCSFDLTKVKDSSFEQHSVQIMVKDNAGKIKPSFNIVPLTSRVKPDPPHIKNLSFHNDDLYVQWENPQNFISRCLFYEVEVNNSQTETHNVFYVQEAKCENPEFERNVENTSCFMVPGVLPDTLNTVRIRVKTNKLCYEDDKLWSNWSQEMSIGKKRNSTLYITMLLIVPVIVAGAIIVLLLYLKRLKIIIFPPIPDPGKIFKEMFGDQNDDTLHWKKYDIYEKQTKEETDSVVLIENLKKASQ

T6: recombinant IL13Rα2 (Sino biological) (UniProt Q14627 27-343, limits assumed)
T6 construct: Bought protein; construct not described
T6 sequence (looked up): T3 chain

B1: PB02-reverse (bispecific antibody)
chain: EVQLVESGGGLVQPGGSLRLSCAASGFTFSRNGMSWVRQAPGKGLEWVATVSSGGSYIYYADSVKGRFTISRDNAKNSLYLQMNSLRAEDTAVYYCARQGTTALATRFFDVWGQGTLVTVSSGGGGSGGGGSGGGGSDIQMTQSPSSLSASVGDRVTITCKASQDVGTAVAWYQQKPGKAPKLLIYSASYRSTGVPSRFSGSGSGTDFTLTISSLQPEDFATYYCQHHYSAPWTFGGGTKVEIKGGGGSDIQMTQSPSSLSASVGDRVTITCRASQDIRNYLNWYQQKPGKAPKLLIYYTSRLESGVPSRFSGSGSGTDYTLTISSLQPEDFATYYCQQGNTLPWTFGQGTKVEIKSGGGGSGGGGSGGGGSEVQLVESGGGLVQPGGSLRLSCAASGYSFTGYTMNWVRQAPGKGLEWVALINPYKGVSTYNQKFKDRFTISVDKSKNTAYLQMNSLRAEDTAVYYCARSGYYGDSDWYFDVWGQGTLVTVSS
notes: Single-chain bispecific T cell engager, VH-VL-VL-VH format: second humanized anti-IL13Rα2 clone fused by GS linker to a modified UCHT1 anti-CD3 scFv; Tested as Expi293F supernatant and as a recombinant purified version; also called PB08-1243
B2: PB02-forward (bispecific antibody)
chain: DIQMTQSPSSLSASVGDRVTITCKASQDVGTAVAWYQQKPGKAPKLLIYSASYRSTGVPSRFSGSGSGTDFTLTISSLQPEDFATYYCQHHYSAPWTFGGGTKVEIKGGGGSGGGGSGGGGSEVQLVESGGGLVQPGGSLRLSCAASGFTFSRNGMSWVRQAPGKGLEWVATVSSGGSYIYYADSVKGRFTISRDNAKNSLYLQMNSLRAEDTAVYYCARQGTTALATRFFDVWGQGTLVTVSSGGGGSEVQLVESGGGLVQPGGSLRLSCAASGYSFTGYTMNWVRQAPGKGLEWVALINPYKGVSTYNQKFKDRFTISVDKSKNTAYLQMNSLRAEDTAVYYCARSGYYGDSDWYFDVWGQGTLVTVSSGGGGSGGGGSGGGGSDIQMTQSPSSLSASVGDRVTITCRASQDIRNYLNWYQQKPGKAPKLLIYYTSRLESGVPSRFSGSGSGTDYTLTISSLQPEDFATYYCQQGNTLPWTFGQGTKVEIKS
notes: Single-chain bispecific T cell engager, VL-VH-VH-VL format: second humanized anti-IL13Rα2 clone fused by GS linker to a modified UCHT1 anti-CD3 scFv; Tested as Expi293F supernatant and as a recombinant purified version; also called PB08-2134
B3: PB01-forward (bispecific antibody)
chain: DIQMTQSPSSLSASVGDRVTITCTASLSVSSTYLHWYQQKPGSSPKLWIYSTSNLASGVPSRFSGSGSGTSYTLTISSLQPEDFATYYCHQYHRSPLTFGGGTKVEIKGGGGSGGGGSGGGGSEVQLVESGGGLVQPGGSLRLSCAASGFSLTKYGVHWVRQAPGKGLEWVGVKWAGGSTDYNSALMSRFTISKDNAKNSLYLQMNSLRAEDTAVYYCARDHRDAMDYWGQGTLVTVSSGGGGSEVQLVESGGGLVQPGGSLRLSCAASGYSFTGYTMNWVRQAPGKGLEWVALINPYKGVSTYNQKFKDRFTISVDKSKNTAYLQMNSLRAEDTAVYYCARSGYYGDSDWYFDVWGQGTLVTVSSGGGGSGGGGSGGGGSDIQMTQSPSSLSASVGDRVTITCRASQDIRNYLNWYQQKPGKAPKLLIYYTSRLESGVPSRFSGSGSGTDYTLTISSLQPEDFATYYCQQGNTLPWTFGQGTKVEIKS
notes: Single-chain bispecific T cell engager, VL-VH-VH-VL format: humanized anti-IL13Rα2 scFv fused by GS linker to a modified UCHT1 anti-CD3 scFv; Tested as Expi293F transfection supernatant and as a recombinant purified version, detected with anti-His tag antibody; also called PB07-2134
B4: PB01-reverse (bispecific antibody)
chain: EVQLVESGGGLVQPGGSLRLSCAASGFSLTKYGVHWVRQAPGKGLEWVGVKWAGGSTDYNSALMSRFTISKDNAKNSLYLQMNSLRAEDTAVYYCARDHRDAMDYWGQGTLVTVSSGGGGSGGGGSGGGGSDIQMTQSPSSLSASVGDRVTITCTASLSVSSTYLHWYQQKPGSSPKLWIYSTSNLASGVPSRFSGSGSGTSYTLTISSLQPEDFATYYCHQYHRSPLTFGGGTKVEIKGGGGSDIQMTQSPSSLSASVGDRVTITCRASQDIRNYLNWYQQKPGKAPKLLIYYTSRLESGVPSRFSGSGSGTDYTLTISSLQPEDFATYYCQQGNTLPWTFGQGTKVEIKSGGGGSGGGGSGGGGSEVQLVESGGGLVQPGGSLRLSCAASGYSFTGYTMNWVRQAPGKGLEWVALINPYKGVSTYNQKFKDRFTISVDKSKNTAYLQMNSLRAEDTAVYYCARSGYYGDSDWYFDVWGQGTLVTVSS

Experiments:
[1] = biological target: T1, IL13Rα2 expressed on tumor cells (U87, …); test: cell-based or functional assay
[2] = biological target: T2, recombinant CD3 protein (Acrobiosystems); test: ELISA
[3] = biological target: T3, recombinant IL13Rα2 (Sino biological); test: ELISA
[4] = biological target: T4, recombinant IL13Rα1 (Sino biological); test: binding ELISA, plate coated with IL13Rα1, Expi293F supernatant
Protocol: (§1) ELISA plates were coated with either IL13Rα2/IL13Rα1 (Sino biological, […]) or CD3 (Acrobiosystems, 1 μg/ml) overnight at 4C. Blocking was performed with PBST-10% FBS for 1 hour. As primary antibody, supernatants from Expi293F cells transfected with dBTEs was used or pVax as negative control at different dilutions. The cells were incubated at room temperature for 1 hour. Secondary antibody was a goat anti-human fab fragment specific HRP conjugated (Jackson immunoresearch). After 1 hour incubation the blots were developed with TMB solution and read OD at 450 nm. To determine binding kinetics, recombinant BTEs were used at indicated concentrations as primary antibody, and HRP conjugated anti-His tag antibody (Biolegend) or goat anti-mouse fab fragment specific antibody as secondary antibody.

[5] = biological target: T5, IL13Rα1 expressed on tumor cells; test: binding to tumor cells (method not given)
[6] = biological target: T6, recombinant IL13Rα2 (Sino biological); test: binding ELISA, recombinant purified BTE on coated recombinant IL13Rα2
Protocol: as §1

Binder	EC50 of killing of U87-GFP-Luc cells, 48h luciferase killing assay with recombinant BTE and primary human T cells [1]	IC50 [2]	IC50 [3]	binding result [4]	binding result [5]	IC50 [6]
B1	~0.1 ng/mL	0.41 ng/mL	9.3 ng/mL	no binding	no binding	
B2	~0.1 ng/mL	11.2 ng/mL		no binding	no binding	4.2 ng/mL
B3	~0.1 ng/mL					21.2 ng/mL
B4	~0.1 ng/mL					
